Key:
Lactobacillus casei LHS = assay: Effect of enzymes, temperature, pH and detergents on antimicrobial activity of peptide ST4SA; format: physicochemical; parameters: key: − = no activity; + = activity zones of at least 5 mm in diameter
Procedure: Antimicrobial activity was expressed as arbitrary units (AU) per ml cell-free supernatant. One AU is defined as the reciprocal of the highest dilution showing a clear zone of growth inhibition and is calculated as follows:
a^b×100, where “a” represents the dilution factor and “b” the last dilution that produces an inhibition zone of at least 2 mm in diameter. Activity is expressed per ml by multiplication with 100. Lactobacillus casei LHS was used as indicator strain.
The cells were harvested (8 000×g, 4° C., 15 min) and the cell-free supernatants adjusted to pH 6.0 with 6M NaOH. One ml of each supernatant was treated with catalase (Boehringer Mannheim) at 0.1 mg/ml (final concentration), Proteinase K (Roche, Indianapolis, Ind., USA), pronase, papain, pepsin and trypsin (Boehringer Mannheim GmbH, Germany), at 1 mg/ml and 0.1 mg/ml (final concentration), respectively. After incubation the enzymes were heat-inactivated (3 min at 100° C.) and tested for antimicrobial activity, as described before.
Aliquots of peptide ST4SA were exposed to heat treatments of 30° C., 60° C. and 100° C. for 10, 30 and 90 min, respectively, and 121° C. for 20 min (Table 3). The samples were then tested for antimicrobial activity, as described before.
In a separate experiment, samples of peptide ST4SA were adjusted to pH values ranging from 2-12, incubated at 37° C. for 30 min, neutralised to pH 7, and then tested for antimicrobial activity (Table 3).

[1] = test system: Pseudomonas sp. isolated from infected middle-ear fluid; assay: Activity on paper disks and comparison with antibiotics (inhibition zones); format: cell-based
Procedure: Activity was tested against a Pseudomonas sp. isolated from infected middle-ear fluid.

Enterococcus spp. HKLHS = assay: Extracellular DNA after treatment of pathogens with peptide ST4SA; format: cell-based; settings: Control organism Enterococcus spp. HKLHS
Text: (§1) Further evidence of cell membrane damage and leakage of cellular constituents was obtained by testing for extracellular DNA and extracellular β-galactosidase activity.

Klebsiella pneumoniae = assay: as above; format: cell-based; settings: Klebsiella pneumoniae 30
Text: as §1

[2] = test system: Middle ear isolates (unknown); assay: as above; format: cell-based
Text: as §1

Pseudomonas auringinosa = assay: as above; format: cell-based; settings: Pseudomonas auringinosa E
Text: as §1

Staphylococcus aureus = assay: as above; format: cell-based; settings: Staphylococcus aureus 36
Text: as §1

Streptococcus pneumoniae = assay: as above; format: cell-based
Text: as §1

Streptococcus pyogenes = assay: as above; format: cell-based; settings: Streptococcus pyogenes 20
Text: as §1

virulence factors = assay: Virulence factors assayed (in vitro tests and/or PCR screening); parameters: species or system Enterococcus mundtii
Text: The presence of virulence factors, viz. vancomycin resistance (VanA/VanB/VanC1/VanC2/VanC3), production of gelatinase (Gel), aggregation substance (AS), adhesin of collagen from enterococci (Ace), enterococcus surface protein (Esp), haemolysin/bacteriocin (Cyl) and non-cytolysin beta hemolysin genes were studied by in vitro tests and/or PCR screening. DNA was extracted from E. mundtii ST4 according to standard methods. The primers designed for amplification of the latter genes were as described.

[3] = test system: Lactobacillus sakei DSM 20017; assay: Binding of peptide ST4SA to polyethylene (PE); format: physicochemical
Procedure: Binding of peptide ST4SA to polyethylene (PE) was tested. PE film was cut into sections of 5×5 cm and soaked for 1 h in a solution of 60% isopropanol and peptide ST4SA (activity level: 102 400 AU/ml). The PE sections were air-dried (20 min at 60° C.) and assayed for antimicrobial activity by using the standard agar diffusion method. The plates, seeded with L. sakei DSM 20017, were incubated for 24 h at 30° C. and examined for zones of growth inhibition.
The strength of binding was determined by soaking the peptide-coated PE film in SDS-buffer, followed by electro-eluting peptide ST4SA from the film with a current of 30 mA for 2 h (room temperature, i.e. ca. 25° C.). Samples were taken at regular time intervals and tested for antimicrobial activity. Protein concentrations were determined by using the Bradford method. Electro-eluted film was tested for antimicrobial activity by using the agar diffusion method as before.

[4] = test system: pathogenic bacteria (Listeria, Bacillus and Staphylococcus); assay: Challenge study with red meat as model, PE-bound peptide; settings: surface (PE)-bound peptide
Procedure: Peptide ST4SA adhered strongly, and it would seem irreversibly, to the PE film. Release of peptide ST4SA from the surface of PE was only possible after 1 h with a current of 30 mA. […] The encapsulation of the antimicrobial peptide in the polymer leads to a slow release of the antimicrobial peptide and an extended period of treatment of a microbial infection.

Q: How did the “Antimicrobial activity after treatment” value (Lactobacillus casei LHS; Detergents (1%): SDS) turn out when “Peptide ST4SA: broad-spectrum antibacterial peptide (bacteriocin) produced by Enterococcus mundtii strain ST4SA, SEQ. ID. NO. 12 (MSQVVGGKYYGNGVSCNKKGCSVDWGKAIGIIGNNSAANLATGGAAGWKS; ENTEROCOCCUS MUNDTII ST4SA)” was run?
A: Its value is “+ (+ = activity zones of at least 5 mm in diameter)”.

Q: What about the “Antimicrobial activity after treatment” value (Lactobacillus casei LHS; Detergents (1%): Triton X-100) of the same substance?
A: The value was “+ (+ = activity zones of at least 5 mm in diameter)”.

Q: And the “Antimicrobial activity after treatment” value (Lactobacillus casei LHS; Detergents (1%): Triton X-114)?
A: The value was “−”.

Q: What about the “Antimicrobial activity after treatment” value (Lactobacillus casei LHS; Detergents (1%): Tween 20, Tween 80) of the same substance?
A: Its value is “+ (+ = activity zones of at least 5 mm in diameter)”.

Q: And the “Antimicrobial activity after treatment” value (Lactobacillus casei LHS; Detergents (1%): urea)?
A: The value was “+ (+ = activity zones of at least 5 mm in diameter)”.

Q: What about the “Antimicrobial activity after treatment” value (Lactobacillus casei LHS; EDTA: 0.1 mM, 1.0 mM, 2.0 mM) of the same substance?
A: Its value is “+ (+ = activity zones of at least 5 mm in diameter)”.

Q: What about the “Antimicrobial activity after treatment” value (Lactobacillus casei LHS; Enzymes: Proteinase K) of the same substance?
A: The value was “−”.

Q: What about the “Antimicrobial activity after treatment” value (Lactobacillus casei LHS; Enzymes: pepsin) of the same substance?
A: The value was “−”.

Q: And the “Antimicrobial activity after treatment” value (Lactobacillus casei LHS; Enzymes: pronase)?
A: Its value is “−”.

Q: And the “Antimicrobial activity after treatment” value (Lactobacillus casei LHS; Enzymes: α-amylase)?
A: The value was “+ (+ = activity zones of at least 5 mm in diameter)”.

Q: And the “Antimicrobial activity after treatment” value (Lactobacillus casei LHS; Heat: 30, 60, 100° C. for 10 min)?
A: The value was “+ (+ = activity zones of at least 5 mm in diameter)”.

Q: And the “Antimicrobial activity after treatment” value (Lactobacillus casei LHS; Heat: 30, 60, 100° C. for 30 min)?
A: Its value is “+ (+ = activity zones of at least 5 mm in diameter)”.

Q: What about the “Antimicrobial activity after treatment” value (Lactobacillus casei LHS; Heat: 30, 60, 100° C. for 90 min) of the same substance?
A: Its value is “+ (+ = activity zones of at least 5 mm in diameter)”.

Q: And the “Antimicrobial activity after treatment” value (Lactobacillus casei LHS; Heat: 121° C. for 20 min)?
A: The value was “−”.

Q: What about the “Antimicrobial activity after treatment” value (Lactobacillus casei LHS; pH 2.0-12.0, 37° C. for 30 min, neutralised to pH 7) of the same substance?
A: The value was “+ (+ = activity zones of at least 5 mm in diameter)”.

Q: And the “Antimicrobial activity after treatment” value (Lactobacillus casei LHS; proteolytic enzyme papain)?
A: Its value is “inactivated”.

Q: And the “Antimicrobial activity after treatment” value (Lactobacillus casei LHS; proteolytic enzyme trypsin)?
A: Its value is “inactivated”.

Q: What about the “Diameter of inhibition zones” value ([1]; Ampicillin 10 μg, Bacitracin 10 units, Chloramphenicol 30 μg, Erythromycin 15 μg, Tetracycline 30 μg, peptide on paper disk) of the same substance?
A: The value was 25 mm.

Q: What about the “Activity of peptide ST4SA on paper disks” value ([1]; Freeze dried) of the same substance?
A: Its value is 409600 AU/ml.

Q: And the “Activity of peptide ST4SA on paper disks” value ([1]; Paper disk (0.6 cm diameter))?
A: The value was 20263 AU/ml.

Q: What about the “Activity of peptide ST4SA on paper disks” value ([1]; Paper disk (2 cm × 2 cm; 700 μl)) of the same substance?
A: The value was 286720 AU/ml.

Q: And the “DNA-leakage (O.D. readings at 260 nm)” value (Enterococcus spp. HKLHS)?
A: Its value is 1.395.

Q: And the “DNA-leakage (O.D. readings at 260 nm)” value (Klebsiella pneumoniae)?
A: The value was 1.01.

Q: And the “DNA-leakage (O.D. readings at 260 nm)” value ([2]; Middle ear isolate 40)?
A: The value was 0.801.

Q: And the “DNA-leakage (O.D. readings at 260 nm)” value ([2]; Middle ear isolate BW)?
A: Its value is 1.186.

Q: What about the “DNA-leakage (O.D. readings at 260 nm)” value ([2]; Middle ear isolate DW) of the same substance?
A: The value was 1.153.

Q: What about the “DNA-leakage (O.D. readings at 260 nm)” value ([2]; Middle ear isolate F) of the same substance?
A: The value was 1.428.

Q: And the “DNA-leakage (O.D. readings at 260 nm)” value ([2]; Middle ear isolate GW)?
A: Its value is 0.751.

Q: And the “DNA-leakage (O.D. readings at 260 nm)” value ([2]; Middle ear isolate HW)?
A: The value was 1.559.

Q: What about the “DNA-leakage (O.D. readings at 260 nm)” value ([2]; Middle ear isolate K) of the same substance?
A: Its value is 0.455.

Q: And the “DNA-leakage (O.D. readings at 260 nm)” value ([2]; Middle ear isolate L)?
A: The value was 0.592.

Q: What about the “DNA-leakage (O.D. readings at 260 nm)” value ([2]; Middle ear isolate M) of the same substance?
A: The value was 0.326.

Q: What about the “DNA-leakage (O.D. readings at 260 nm)” value (Pseudomonas auringinosa) of the same substance?
A: The value was 0.187.

Q: What about the “DNA-leakage (O.D. readings at 260 nm)” value (Staphylococcus aureus) of the same substance?
A: Its value is 0.892.

Q: What about the “DNA-leakage (O.D. readings at 260 nm)” value (Streptococcus pneumoniae; Streptococcus pneumoniae 27) of the same substance?
A: Its value is 1.670.

Q: And the “DNA-leakage (O.D. readings at 260 nm)” value (Streptococcus pneumoniae; Streptococcus pneumoniae 29)?
A: Its value is 1.182.

Q: What about the “DNA-leakage (O.D. readings at 260 nm)” value (Streptococcus pneumoniae; Streptococcus pneumoniae D) of the same substance?
A: Its value is 1.160.

Q: What about the “DNA-leakage (O.D. readings at 260 nm)” value (Streptococcus pyogenes) of the same substance?
A: The value was 0.930.

Q: And the “Virulence factor AS (Aggregation substance)” value (virulence factors)?
A: The value was “−”.

Q: What about the “Virulence factor Ace (Adhesin to collagen from E. faecalis)” value (virulence factors) of the same substance?
A: The value was “−”.

Q: What about the “Virulence factor Cyl (Cytolysin, β-hemolysin activity)” value (virulence factors) of the same substance?
A: Its value is “+”.

Q: What about the “Virulence factor Efa-Afm (E. faecium endocarditis antigen)” value (virulence factors) of the same substance?
A: Its value is “−”.

Q: What about the “Virulence factor Efa-Afs (E. faecalis endocarditis antigen)” value (virulence factors) of the same substance?
A: The value was “−”.

Q: What about the “Virulence factor Esp (Enterococcus surface protein)” value (virulence factors) of the same substance?
A: The value was “−”.

Q: What about the “Virulence factor Gel (Gelatinase production)” value (virulence factors) of the same substance?
A: The value was “−”.

Q: What about the “Virulence factor Non-cyt (non-cytolysin beta hemolysin III)” value (virulence factors) of the same substance?
A: The value was “+”.

Q: What about the “Virulence factor Van A (Vancomycin resistance)” value (virulence factors) of the same substance?
A: Its value is “−”.

Q: And the “Virulence factor Van B (Vancomycin resistance)” value (virulence factors)?
A: The value was “−”.

Q: What about the “Virulence factor Van C1/2/3” value (virulence factors) of the same substance?
A: The value was “−”.

Q: What about the “Time to adsorb to PE” value ([3]; PE film, 60% isopropanol, peptide 102 400 AU/ml) of the same substance?
A: Its value is at most 60 s.

Q: What about the “Antimicrobial activity of peptide-coated PE film” value ([3]; agar diffusion, L. sakei DSM 20017) of the same substance?
A: The value was “high antimicrobial activity”.

Q: And the “Time to release of peptide from the surface of PE” value ([3]; electro-elution, current of 30 mA, SDS-buffer)?
A: Its value is at least 1 h.

Q: And the “Growth of pathogenic bacteria on red meat” value [4]?
A: Its value is “prevented the growth of pathogenic bacteria”.
